According to PMC9468113:

Biological target: MST-Red-labeled human MIF (human) (UniProt P14174)
Assay: MST; Monolith NT.115, 25 °C; MST-Red-MIF at fixed concentration (312 nM with CXCL4L1, 456 nM with CXCL4) with serial dilutions of the chemokine; 10 mM Tris-HCl, pH 8.0, 0.01% BSA; both in solution

Chain of MST-Red-labeled human MIF (human) (P14174 2-115): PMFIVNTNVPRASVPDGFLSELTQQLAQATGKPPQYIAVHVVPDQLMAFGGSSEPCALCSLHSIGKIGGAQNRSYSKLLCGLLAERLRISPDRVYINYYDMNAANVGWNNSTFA

Kd: 2 µM
Substance: recombinant human CXCL4 (PF4), Peprotech (from UniProt P02776 32-101) (natural protein)
